From patent publication US6284729A, “Methods and reagents for regulating obesity” (Children's Medical Center Corporation, priority 1998, dated 2001)

Columns and labels:
[1] = target: T1, syndecan-1 ectodomain (Mus musculus, UniProt P18828); test: Binding of radioactive syndecan-1 ectodomain to neuropeptides immobilized on nitrocellulose membrane (autoradiography); details: peptides immobilized on nitrocellulose, UV cross-linked
T1 sequence (P18828 23-255 limits assumed): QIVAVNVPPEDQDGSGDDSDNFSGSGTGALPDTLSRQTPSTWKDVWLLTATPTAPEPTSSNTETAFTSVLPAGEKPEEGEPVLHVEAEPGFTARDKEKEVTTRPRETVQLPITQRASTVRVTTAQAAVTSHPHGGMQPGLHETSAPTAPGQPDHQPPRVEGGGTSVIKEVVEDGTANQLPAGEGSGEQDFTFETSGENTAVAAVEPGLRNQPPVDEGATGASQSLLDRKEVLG
Procedure: Binding of syndecan-1 ectodomain to neuropeptides involved in body weight regulation was tested. Varying concentrations of the peptides were immobilized on a nitrocellulose membrane (for example, 1000 nmol) and fixed by UV cross-linking. The membrane was incubated with radioactive syndecan-1 ectodomain to allow binding and then washed and analyzed by autoradiography.

[2] = system: melanocortin-4 receptor; test: MC4-R adenylyl cyclase assay (conversion of ATP to cAMP) in membranes from 293 cells transfected with the melanocortin-4 receptor, with ndp-MSH; type: biochemical; details: for potentiation of MC4-R inhibition by AGRP (formation of cAMP from ATP): membranes preincubated with substance plus AGRP, FIGS. 1a and 1b
Procedure: Based on the interaction of AGRP and syndecan-1, the putative interaction between agouti/AGRP and syndecaniheparan sulfate in a functional assay was tested. Membranes from 293 cells transfected with the melanocortin-4 receptor were preincubated with buffer or as indicated with AGRP, heparan sulfate, syndecan-1 ectodomain, heparan sulfate plus AGRP, and syndecan-1 ectodomain plus AGRP. Samples were then mixed with or without the indicated concentration of ndp-{character pullout}MSH and conversion of ATP to cAMP measured in the assay.

[3] = system: Mc3r; details: recombinant protein; cited from earlier work
[4] = system: Mc4r; details: recombinant protein; cited from earlier work

Row | Molecule | interaction with syndecan-1 (binding of radioactive syndecan-1 ectodomain to immobilized peptide) [1] | potentiation of MC4-R inhibition by AGRP (formation of cAMP from ATP) [2] | further results
1 | NC(=O)CC[C@@H]1NC(=O)[C@H](Cc2ccccc2)NC(=O)[C@H](Cc2ccc(O)cc2)NC(=O)[C@@H](N)CSSC[C@@H](C(=O)N2CCC[C@H]2C(=O)N[C@@H](CCCN=C(N)N)C(=O)NCC(N)=O)NC(=O)[C@H](CC(N)=O)NC1=O [vasopressin, reference compound] | interact with syndecan-1 |  | 
2 | FGF-2: fibroblast growth factor-2, heparin-binding growth factor | interact with syndecan-1 |  | 
3 | heparan sulfate [reference compound] |  | potentiates melanocortin-4R (MC4-R) inhibition by AGRP | potency of AGRP at inhibiting MC4-R activation in presence of the substance ([2]; 1 μg/ml heparan sulfate): 10 nM AGRP is as potent as 100 nM AGRP
4 | AGRP: Agouti-related protein, 132 aa hypothalamic analog of agouti; inhibitor of MC3-R and MC4-R (SSRRCVRLHESCLGQQVPCCDPCATCYCRFFNAFCYCRKLGTAMNPCSRT; UniProt O00253 83-132, looked up) | interact with syndecan-1 |  | antagonism of Mc3r [3]: potent, selective antagonist; antagonism of Mc4r [4]: potent, selective antagonist
5 | agouti: 131 aa paracrine signaling molecule; switches hair follicle melanocytes from black to yellow pigment (protein, UniProt Q03288 23-131, looked up) Agouti-signaling protein: HLALEETLGDDRSLRSNSSMNSLDFSSVSIVALNKKSKKISRKEAEKRKRSSKKKASMKKVARPPPPSPCVATRDSCKPPAPACCDPCASCQCRFFGSACTCRVLNPNC | interact with syndecan-1 |  | 
6 | syndecan-1 ectodomain: soluble extracellular domain of syndecan-1, a transmembrane heparan sulfate proteoglycan (protein, UniProt P18827 23-254, looked up, extracellular domain, soluble extracellular domain of syndecan-1, a transmembrane heparan sulfate proteoglycan) extracellular domain: QIVATNLPPEDQDGSGDDSDNFSGSGAGALQDITLSQQTPSTWKDTQLLTAIPTSPEPTGLEATAASTSTLPAGEGPKEGEAVVLPEVEPGLTAREQEATPRPRETTQLPTTHLASTTTATTAQEPATSHPHRDMQPGHHETSTPAGPSQADLHTPHTEDGGPSATERAAEDGASSQLPAAEGSGEQDFTFETSGENTAVVAVEPDRRNQSPVDQGATGASQGLLDRKEVLG |  | potentiates melanocortin-4R (MC4-R) inhibition by AGRP | potency of AGRP at inhibiting MC4-R activation in presence of the substance ([2]; 1 ng/ml syndecan-1 ectodomain): 10 nM AGRP is as potent as 100 nM AGRP; potentiation of the action of agouti on the MC4-R ([2]; biochemical assay, agouti instead of AGRP): potentiates the action of agouti on the MC4-R; concentration dependence of potentiation of AGRP's action ([2]; low versus higher concentrations of syndecan-1 ectodomain): potentiation is less pronounced at higher concentrations
